No end group written: not given here.
Target: rabbit skeletal muscle actin, polymerized (F-actin) (rabbit, UniProt P68135 1-377)
Assay: co-sedimentation

Row | Binder | binding result | percent of the protein sedimenting with actin
1 | LYAVGGHDGPMVRRSVEAYDCETNSWRSVADMSYCRRNAGVVAHDGL (domain or fragment, cysteine pairing not given here; also: biotin-labeled, place not given here) [Kelch repeat 5 (L594-L640)] | binds | –
2 | LYAVGGHDGPMVRRSVEAYDCETNSWRSVADMSACRRNAGVVAHDGL (domain or fragment, cysteine pairing not given here; also: biotin-labeled, place not given here) [Kelch repeat 5 (L594-[Y627A]-L640)] | – | 100%

Further lines, results first:

Row | binding result | percent of the protein sedimenting with actin | Binder
3 | – | 100% | LYAVGGHDGPMVRRSVEAYDCETNSWRSVADMSFCRRNAGVVAHDGL (domain or fragment, cysteine pairing not given here; also: biotin-labeled, place not given here) [Kelch repeat 5 (L594-[Y627F]-L640)]
4 | – | < 50% | LYAVGGHDGPMVRRSVEAYDCETNSWRSVADMSDCRRNAGVVAHDGL (domain or fragment, cysteine pairing not given here; also: biotin-labeled, place not given here) [Kelch repeat 5 (L594-[Y627D]-L640)]

— article PMC2174084 (The Journal of Cell Biology, 2002)
